Test results from patent publication US20140099313A1 (published 2014).

B1: 1B6 (antibody, V domains shown)
VH: QVQLKESGPGLVAPSQSLSITCTVSGFSLTGYGVNWVRQPPGKGLEWLGMIWGDERIDYNSALKSRLSITKDNSKSQVFLKMNSLQTDDTGRYFCARDGYFPYAMDYWGQGTSVTVSS
VL: NIVLTQSPASLAVSLGQRATISCRASETVDSYGKSYLHWYQQKPGQPPKLLIYLASNLESGVPARFSGSGSRTDFTLIIDPVEADDAATYYCQQNNEGPRTFGGGTKLEIKR
notes: Murine monoclonal, IgG1κ
B2: 13C5.5 (antibody, human IgG1, V domains shown)
VH: EVTLRESGPGLVKPTQTLTLTCTLYGFSLSTSDMGVDWIRQPPGKGLEWLAHIWWDDVKRYNPALKSRLTISKDTSKNQVVLKLTSVDPVDTATYYCARTVSSGYIYYAMDYWGQGTLVTVSS
VL: DIQMTQSPSSLSASVGDRVTISCRASQDIRNYLNWYQQKPGKAPKLLIFYTSKLHSGVPSRFSGSGSGTDYTLTISSLQPEDIATYYCQQGNTLPLTFGGGTKVEIK
notes: Humanized; also called humanized 13C5

What was measured:
[1] = target: T1, human IL-13 variant (R130Q of SEQ ID NO 1) (human, UniProt P35225 35-146); assay: SPR (Biacore), captured mAb
T1 construct: Recombinant purified protein (Peprotech for immunisation); also called h IL-13v; hIL-13v
Experimental: The BIACORE assay (Biacore, Inc, Piscataway, N.J.) determines the affinity of antibodies with kinetic measurements of on-, off-rate constants. […] All chemicals were obtained from Biacore® AB (Uppsala, Sweden) or otherwise from a different source as described in the text. Approximately 5000 RU of goat anti-mouse IgG, (Fcγ), fragment specific polyclonal antibody (Pierce Biotechnology Inc, Rockford, Ill.) diluted in 10 mM sodium acetate (pH 4.5) was directly immobilized across a CM5 research grade biosensor chip using a standard amine coupling kit according to manufacturer's instructions and procedures at 25 μg/ml. […] Unmodified carboxymethyl dextran without goat anti-mouse IgG in flow cell 1 and 3 was used as the reference surface. For kinetic analysis, rate equations derived from the 1:1 Langmuir binding model were fitted simultaneously to association and dissociation phases of all eight injections (using global fit analysis) with the use of Biaevaluation 4.0.1 software. […] The association and dissociation rate constants, kₒₙ (unit M⁻¹s⁻¹) and koff (unit s⁻¹) were determined under a continuous flow rate of 25 μl/min Rate constants were derived by making kinetic binding measurements at ten different antigen concentrations ranging from 10-200 nM. […] Binding is recorded as a function of time and kinetic rate constants are calculated.

[2] = target: T2, human IL-13 wild type (human, UniProt P35225 35-146); assay: competition: human IL-13 to human IL-13Rα2, cell surface-based and ELISA-based RBA
T2 construct: also called h IL-13; hIL-13 wt
T2 sequence (P35225 other isoform, or with tags, fused parts or gaps limits assumed): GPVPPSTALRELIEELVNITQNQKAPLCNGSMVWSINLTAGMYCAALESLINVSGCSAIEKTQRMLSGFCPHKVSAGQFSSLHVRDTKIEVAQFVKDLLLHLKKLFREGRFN

T1 sequence (P35225 35-146 limits assumed, stated change not applied): as the sequence (P35225 other isoform, or with tags, fused parts or gaps limits assumed) above, with R110Q counted along it

Binder | kon [1] | IC50 [2]
B1 | 106000 M⁻¹ s⁻¹ | 
B2 |  | 1 to 3 nM
